# From article PMC10213515
# Molecular target: FtsZ (UniProt P0A9A6)
# Test: PL recruitment assay (SUV co-sedimentation by low-speed centrifugation, SDS-PAGE)
# Conditions: FtsZ 3 μM, GTP 2 mM, FtsA wild type or mutant 2.5 μM, SUVs 250 μg ml-1, ATP 4 mM; parent: 93.7
# UniProt P0A9A6, sequence (P0A9A6 whole entry): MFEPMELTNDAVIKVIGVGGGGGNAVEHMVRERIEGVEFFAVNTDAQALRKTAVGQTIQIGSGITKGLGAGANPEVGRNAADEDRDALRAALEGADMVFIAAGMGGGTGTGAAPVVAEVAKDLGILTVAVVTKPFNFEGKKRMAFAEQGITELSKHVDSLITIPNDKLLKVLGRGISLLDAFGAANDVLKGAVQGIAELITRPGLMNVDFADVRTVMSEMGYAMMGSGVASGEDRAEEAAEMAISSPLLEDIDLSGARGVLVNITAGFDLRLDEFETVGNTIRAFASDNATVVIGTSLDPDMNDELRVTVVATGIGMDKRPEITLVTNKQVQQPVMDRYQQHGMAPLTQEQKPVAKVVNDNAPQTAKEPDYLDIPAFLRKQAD
row,Substance,response
1,FtsA wild type (from UniProt P0ABH0) A188V,95.3 % of total
2,FtsA wild type (from UniProt P0ABH0) E14R,83.8 % of total
3,FtsA wild type (from UniProt P0ABH0) S84L,97.2 % of total
4,FtsA wild type (from UniProt P0ABH0) Y375A,41.1 % of total
